Laboratory results: article doi:10.1101/2024.12.09.627598

Molecular target: TLR5^N14, a truncated human TLR5 construct containing only the D1-domain binding sites (human) (UniProt O60602)
Assay: SPR

Sequence of UniProt O60602 (O60602 21-639): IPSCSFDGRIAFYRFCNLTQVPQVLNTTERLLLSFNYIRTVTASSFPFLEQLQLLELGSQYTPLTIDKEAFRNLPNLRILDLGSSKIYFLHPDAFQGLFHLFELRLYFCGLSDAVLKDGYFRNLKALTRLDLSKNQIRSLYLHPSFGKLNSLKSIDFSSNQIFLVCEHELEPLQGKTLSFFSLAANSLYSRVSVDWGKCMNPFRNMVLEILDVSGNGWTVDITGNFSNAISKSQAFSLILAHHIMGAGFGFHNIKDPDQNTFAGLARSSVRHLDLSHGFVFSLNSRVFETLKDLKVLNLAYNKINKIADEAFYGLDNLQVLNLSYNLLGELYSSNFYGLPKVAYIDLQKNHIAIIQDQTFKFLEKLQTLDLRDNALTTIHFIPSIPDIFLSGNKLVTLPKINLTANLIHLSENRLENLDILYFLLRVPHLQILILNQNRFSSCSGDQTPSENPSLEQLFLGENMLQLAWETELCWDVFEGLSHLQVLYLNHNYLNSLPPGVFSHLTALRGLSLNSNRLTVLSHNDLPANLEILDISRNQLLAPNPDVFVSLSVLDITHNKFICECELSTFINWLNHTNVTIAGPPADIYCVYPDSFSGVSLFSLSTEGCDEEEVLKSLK

Row | Substance | Kd | koff | kon
1 | RhFlaB, flagellin FlaB of Roseburia hominis, wild type (recombinant) (from UniProt G2T5W2 1-506) (natural protein) | 11.4 nM | 0.000555 s⁻¹ | 45200 M⁻¹ s⁻¹
2 | RhFlaB-ΔD0, RhFlaB truncated to remove the D0 domain (domain or fragment) | – | – | 75500 M⁻¹ s⁻¹
3 | StFliC, flagellin FliC of Salmonella enterica serovar Typhimurium, wild type (from UniProt P06179 1-495) (natural protein) | 16.3 nM | 0.000192 s⁻¹ | 11300 M⁻¹ s⁻¹
4 | StFliC-PIM, primary interface mutant of StFliC (Q89A, R90A, Q97A) (natural protein) | 585 nM | 0.011 s⁻¹ | 18800 M⁻¹ s⁻¹
5 | RhFlaB-PIM, primary interface mutant of RhFlaB (Q88A, R89A, Q96A) (from UniProt G2T5W2 1-506) (natural protein) | 78 nM | 0.000691 s⁻¹ | 9090 M⁻¹ s⁻¹
